Laboratory results reported in patent US20240342207, “MODIFIED NUCLEIC ACID COMPOSITIONS AND ASSOCIATED METHODS FOR TREATMENT OF PHENYLKETONURIA” (BOARD OF REGENTS, THE UNIVERSITY OF TEXAS SYSTEM, published 2024).

Tests used:
Experiment in all cases: EMSA; one of 13 of 17 binding mutants; affinity not decreased
Details in all cases: tags: His-tag, E. coli; stem-loop
PAH I65S = target: T1, PAH I65S (Homo sapiens, UniProt P00439 P00439:1-452, I65S)
T1 sequence: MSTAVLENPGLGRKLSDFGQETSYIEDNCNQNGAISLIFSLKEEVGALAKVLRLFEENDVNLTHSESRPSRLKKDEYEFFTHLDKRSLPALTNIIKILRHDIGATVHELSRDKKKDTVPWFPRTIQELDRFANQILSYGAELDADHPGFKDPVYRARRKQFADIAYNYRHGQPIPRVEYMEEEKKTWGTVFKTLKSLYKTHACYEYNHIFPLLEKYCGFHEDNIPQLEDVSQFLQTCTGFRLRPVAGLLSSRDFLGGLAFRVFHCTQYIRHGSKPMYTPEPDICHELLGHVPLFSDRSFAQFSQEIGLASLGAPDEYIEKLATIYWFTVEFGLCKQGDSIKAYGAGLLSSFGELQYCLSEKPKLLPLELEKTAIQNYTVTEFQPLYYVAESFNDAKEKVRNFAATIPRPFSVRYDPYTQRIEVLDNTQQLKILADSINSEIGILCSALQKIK

PAH A47V = target: T2, PAH A47V (Homo sapiens, UniProt P00439 P00439:1-452, A47V)
T2 sequence: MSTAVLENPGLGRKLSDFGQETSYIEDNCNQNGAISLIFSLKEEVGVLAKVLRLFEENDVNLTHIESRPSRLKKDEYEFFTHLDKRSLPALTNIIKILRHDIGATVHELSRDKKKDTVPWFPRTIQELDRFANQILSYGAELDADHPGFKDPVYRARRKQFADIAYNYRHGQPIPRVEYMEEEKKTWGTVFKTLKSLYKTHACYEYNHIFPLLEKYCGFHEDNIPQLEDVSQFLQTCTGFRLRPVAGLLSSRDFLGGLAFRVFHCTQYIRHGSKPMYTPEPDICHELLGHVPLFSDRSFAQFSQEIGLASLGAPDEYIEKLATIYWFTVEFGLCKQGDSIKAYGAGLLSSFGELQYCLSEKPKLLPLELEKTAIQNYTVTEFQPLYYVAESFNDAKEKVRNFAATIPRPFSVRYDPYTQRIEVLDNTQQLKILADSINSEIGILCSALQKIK

PAH F39L = target: T3, PAH F39L (Homo sapiens, UniProt P00439 P00439:1-452, F39L)
T3 sequence: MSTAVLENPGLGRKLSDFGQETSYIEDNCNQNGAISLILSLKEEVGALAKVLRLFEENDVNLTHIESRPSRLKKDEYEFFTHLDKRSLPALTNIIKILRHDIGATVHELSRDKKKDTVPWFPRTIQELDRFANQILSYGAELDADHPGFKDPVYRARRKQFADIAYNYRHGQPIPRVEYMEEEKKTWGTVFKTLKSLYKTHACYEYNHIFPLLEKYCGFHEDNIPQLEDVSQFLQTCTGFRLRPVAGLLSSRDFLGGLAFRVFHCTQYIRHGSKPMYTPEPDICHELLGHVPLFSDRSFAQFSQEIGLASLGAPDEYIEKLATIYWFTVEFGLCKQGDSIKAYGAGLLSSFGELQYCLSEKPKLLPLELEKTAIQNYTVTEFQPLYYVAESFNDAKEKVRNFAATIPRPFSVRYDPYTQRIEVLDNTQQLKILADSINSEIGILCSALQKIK

PAH F55L = target: T4, PAH F55L (Homo sapiens, UniProt P00439 P00439:1-452, F55L)
T4 sequence: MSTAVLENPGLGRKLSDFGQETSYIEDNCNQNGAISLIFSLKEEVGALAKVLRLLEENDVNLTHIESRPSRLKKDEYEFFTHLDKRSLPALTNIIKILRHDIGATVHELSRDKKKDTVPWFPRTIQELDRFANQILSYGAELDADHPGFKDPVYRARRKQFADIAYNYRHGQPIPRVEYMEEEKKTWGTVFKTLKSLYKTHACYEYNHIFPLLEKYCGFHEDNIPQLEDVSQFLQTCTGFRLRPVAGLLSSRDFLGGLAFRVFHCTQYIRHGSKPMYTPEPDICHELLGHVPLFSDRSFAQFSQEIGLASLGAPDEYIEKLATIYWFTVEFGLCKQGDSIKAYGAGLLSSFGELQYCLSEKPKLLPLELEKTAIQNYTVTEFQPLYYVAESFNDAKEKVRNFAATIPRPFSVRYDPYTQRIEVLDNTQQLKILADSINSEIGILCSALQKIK

PAH I318T = target: T5, PAH I318T (Homo sapiens, UniProt P00439 P00439:1-452, I318T)
T5 sequence: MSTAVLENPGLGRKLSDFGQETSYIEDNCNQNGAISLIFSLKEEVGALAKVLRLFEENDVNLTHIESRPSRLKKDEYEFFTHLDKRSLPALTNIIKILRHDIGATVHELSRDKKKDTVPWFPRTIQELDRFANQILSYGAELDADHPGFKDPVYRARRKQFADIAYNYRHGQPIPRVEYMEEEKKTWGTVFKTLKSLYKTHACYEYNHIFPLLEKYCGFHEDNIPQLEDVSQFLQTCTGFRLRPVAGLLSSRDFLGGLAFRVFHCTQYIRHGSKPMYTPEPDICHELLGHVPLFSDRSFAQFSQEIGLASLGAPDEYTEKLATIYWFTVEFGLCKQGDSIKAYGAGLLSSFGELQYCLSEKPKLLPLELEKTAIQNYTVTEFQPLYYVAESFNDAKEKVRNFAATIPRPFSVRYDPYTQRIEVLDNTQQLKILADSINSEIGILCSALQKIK

Measured: binding result

CAAAAUGCAUAUGUAUCUUUG (ssRNA) [HULC 181-201 mimic]
binds: all assays above
